The source of these data is paper PMC7968997.

Residue numbers refer to the chain shown, from its start.

For series [1], the target named is T1, RBM45 RRM1-2 WT (Homo sapiens, UniProt Q8IUH3 23-202).
T1 sequence: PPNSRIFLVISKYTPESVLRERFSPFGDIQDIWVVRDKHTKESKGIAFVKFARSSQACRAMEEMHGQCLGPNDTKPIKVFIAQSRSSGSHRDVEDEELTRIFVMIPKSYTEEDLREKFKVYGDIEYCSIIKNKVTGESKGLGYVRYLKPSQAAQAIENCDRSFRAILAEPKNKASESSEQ
Put plainly: gel filtration, SEC-MALS. On the technique in general: Size exclusion chromatography separates by hydrodynamic size, large species first.

For series [2], the target named is T1, RBM45 RRM1-2 WT. Put plainly: gel filtration, SEC-MALS. The source holds these as a separate data set.
For series [3], the target named is T1, RBM45 RRM1-2 WT. Put plainly: fluorescence polarization.
Series [4] concerns the target T1, RBM45 RRM1-2 WT. Put plainly: gel filtration.
Series [5] has as its target T1, RBM45 RRM1-2 WT. Put plainly: gel filtration, SEC-MALS. The source holds these as a separate data set.
Series [6] has as its target T1, RBM45 RRM1-2 WT. Put plainly: gel filtration, SEC-MALS. The source holds these as a separate data set.
The target of series [7] is T1, RBM45 RRM1-2 WT. Put plainly: crystal structure.
In series [8] the target is T1, RBM45 RRM1-2 WT. Put plainly: gel filtration, SEC-MALS. This is another data set of the same source.
The target of series [9] is T2, RBM45 RRM1-2 F29A/F70A (RRM2 analog) (Homo sapiens, UniProt Q8IUH3 23-202, F29A;F70A).
T2 sequence: T1 sequence with F7A, F48A
Put plainly: fluorescence polarization. Background: In fluorescence polarisation assays a small probe gives low polarisation when free and higher when bound to something large.

Series [10] addresses T1, RBM45 RRM1-2 WT. Put plainly: fluorescence polarization. This is another data set of the same source.
Series [11] concerns the target T3, RBM45 RRM1-2 F124A/Y165A (RRM1 analog) (Homo sapiens, UniProt Q8IUH3 23-202, F124A;Y165A).
T3 sequence: T1 sequence with F102A, Y143A
Put plainly: fluorescence polarization.

Series [12] concerns the target T1, RBM45 RRM1-2 WT. Put plainly: gel filtration, SEC-MALS. This is another data set of the same source.
Series [13] has as its target T1, RBM45 RRM1-2 WT. Put plainly: gel filtration, SEC-MALS. This is another data set of the same source.
Series [14] deals with T1, RBM45 RRM1-2 WT. Put plainly: gel filtration, SEC-MALS. The source holds these as a separate data set.
The target in series [15] is T2, RBM45 RRM1-2 F29A/F70A (RRM2 analog). Put plainly: fluorescence polarization. This is another data set of the same source.
Series [16] deals with T3, RBM45 RRM1-2 F124A/Y165A (RRM1 analog). Put plainly: fluorescence polarization. The source holds these as a separate data set.

For CGACGGGGACGC (ssRNA) [12-mer 2-GAC RNA], the binding result in series [1] is “binds”. Turning to CGACGGGACGC (ssRNA) [11-mer 2-GAC RNA], the binding result in [2] was “binds”. As a reminder, the Kd is the free concentration of one partner at which half of the binding sites on the other are occupied at equilibrium, for simple one-to-one binding. Turning to UUUUUU (ssRNA) [polyU 6-mer RNA], binding in series [3] was put at a Kd of 57.2 ± 10.2 µM. With CGACGGACGC (ssRNA) [10-mer 2-GAC RNA], in series [4], the binding result was “binds”. As for CGACGGUUUUGGACGC (ssRNA) [16-mer 2-GAC RNA], the binding result in [5] is recorded as “binds”. Take CGACGGUUUUUUUUUUUUUUGGACGC (ssRNA) [26-mer 2-GAC RNA]: in series [6], the binding result is reported as “binds”. Take CGACGGGACGC (ssDNA) [11-nt ssDNA]: the binding result in series [7] was “binds”. As to CGACGGUUUUUU (ssRNA) [12-mer GAC-polyU RNA], the binding result in series [8] is “binds”. Consider GGACGG (ssRNA, m6A at position 3) [GG(m6A)CGG RNA], for which the binding result in series [9], in series [10] and in series [11] was “binds” in each case.

Consider CGACGGUUUUUUUUGGACGC (ssRNA) [20-mer 2-GAC RNA], for which the binding result in series [12] is given as “binds”. As to CGACGGUUGGACGC (ssRNA) [14-mer 2-GAC RNA], the binding result in series [5] is “binds”. Consider CGACGGUUUUUUGGACGC (ssRNA) [18-mer 2-GAC RNA], for which the binding result in series [13] is listed as “binds”. Regarding CGACGGUUUUUUUUUUGGACGC (ssRNA) [22-mer 2-GAC RNA], the binding result in [14] is given as “binds”. For GGACGG (ssDNA) [GGACGG ssDNA], the Kd was determined as 2.31 ± 0.19 µM in [15], 0.805 ± 0.108 µM in series [3] and 1.21 ± 0.09 µM in [16]. For CGACGACGC (ssRNA) [9-mer 2-GAC RNA], the binding result in series [4] is “binds”.
